Test results from paper PMC9635297 (Molecular Biology of the Cell, 2022).

Target: the molecule itself
Assay: SEC

B1: 6xHis-Cdc3 (natural protein)
chain: MSLKEEQVSIKQDPEQEERQHDQFNDVQIKQESQDHDGVDSQYTNGTQNDDSERFEAAESDVKVEPGLGMGITSSQSEKGQVLPDQPEIKFIRRQINGYVGFANLPKQWHRRSIKNGFSFNLLCVGPDGIGKTTLMKTLFNNDDIEANLVKDYEEELANDQEEEEGQGEGHENQSQEQRHKVKIKSYESVIEENGVKLNLNVIDTEGFGDFLNNDQKSWDPIIKEIDSRFDQYLDAENKINRHSINDKRIHACLYFIEPTGHYLKPLDLKFMQSVYEKCNLIPVIAKSDILTDEEILSFKKTIMNQLIQSNIELFKPPIYSNDDAENSHLSERLFSSLPYAVIGSNDIVENYSGNQVRGRSYPWGVIEVDNDNHSDFNLLKNLLIKQFMEELKERTSKILYENYRSSKLAKLGIKQDNSVFKEFDPISKQQEEKTLHEAKLAKLEIEMKTVFQQKVSEKEKKLQKSETELFARHKEMKEKLTKQLKALEDKKKQLELSINSASPNVNHSPVPTKKKGFLR
stoichiometry N: 2
